# Data reported in the supplement of paper PMC10567573.
# B1: TBX6 (parent)
# chain: AFLELPHGSGGSGYPAAPPAVPFA
# B2: TEKT4 (parent)
# chain: YARYHQAFADRDQSERQRHESQQL
# Variants of: B1
# Experiment: protein stability index of a GFP-peptide fusion (GPS, HEK-293T) (PSI 1-6); higher = more stable
# Settings: c terminus: a fixed tail appended
# 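Further: lentivirally expressed fusions sorted by FACS into six bins by GFP to DsRed ratio, PSI derived from sequencing read proportions per bin multiplied by bin number.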
row,Variant,protein stability index
1,A1Q,2.77
2,A1W,1.89
3,A1G,2.84
4,A1D,2.83
5,A1Y,2.21
6,A1T,2.71
7,A1I,2.67
8,A1L,2.07
9,A1R,2.58
10,A1P,2.94
11,A1C,1.41
12,A1E,3.11
13,A1V,1.78
14,A1N,2.83
15,A1H,3.13
16,A1S,2.08
17,A1K,3.26
18,A1M,1.61
19,A1F,1.89
20,F2A,3.45
21,F2N,4.05
22,F2M,2.83
23,F2L,3.08
24,F2V,3.2
25,F2H,3.88
26,F2W,2.11
27,F2K,3.76
28,F2C,3.58

row,Variant,protein stability index
1,F2G,3.33
2,F2E,4.25
3,F2S,3.63
4,F2R,3.22
5,F2Y,2.82
6,F2D,3.93
7,F2P,4.04
8,F2Q,3.65
9,F2T,3.49
10,F2I,2.94
11,L3C,2.7
12,L3M,2.41
13,L3F,2.68
14,L3I,2.28
15,L3K,3.45
16,L3G,3.43
17,L3Q,3.43
18,L3D,3.96
19,L3P,4.08
20,L3H,3.19
21,L3V,2.93
22,L3E,3.66
23,L3S,2.87
24,L3N,3.57
25,L3A,3.14
26,L3R,3.47
27,L3T,3.23

# Variants of: B2
# Experiment: as above
# Settings: c terminus: a fixed tail appended
row,Variant,protein stability index
1,S14D,2.76
2,S14G,1.8
3,S14R,1.63
4,S14Q,2.13
5,S14L,2.72
6,S14H,1.99
7,S14C,1.46
8,S14E,2.59
9,S14M,1.79
10,S14T,2.37
11,S14A,1.88
12,S14K,2.22
13,S14F,1.48
14,S14V,2.31
15,S14I,2.16
16,S14Y,2.07
17,S14P,3.2
18,S14W,1.71
19,S14N,2.21
20,L24C,1.67
21,L24W,1.85
22,L24I,2.03
23,L24G,2.37
24,L24A,1.88
25,L24E,2.24
26,L24V,1.57

row,Variant,protein stability index
1,L24M,2.21
2,L24D,2.14
3,L24F,2.37
4,L24S,2.27
5,L24T,2.15
6,L24N,2.23
7,L24P,1.64
8,L24Q,2.57
9,L24R,1.68
10,L24Y,2.12
11,L24K,1.73
12,L24H,2.42
13,Q22D,2.17
14,Q22T,1.63
15,Q22M,2.2
16,Q22S,1.92
17,Q22K,2.17
18,Q22V,1.79
19,Q22W,1.43
20,Q22A,1.8
21,Q22R,1.85
22,Q22F,1.9
23,Q22Y,1.65
24,Q22C,1.57
25,Q22G,1.85
26,Q22L,1.82

row,Variant,protein stability index
1,Q22P,2.17
2,Q22I,1.66
3,Q22N,2.1
4,Q22H,2.36
5,Q22E,2.25
6,Q23L,2.63
7,Q23A,1.84
8,Q23P,1.92
9,Q23F,1.44
10,Q23I,1.66
11,Q23M,1.94
12,Q23N,1.91
13,Q23T,1.85
14,Q23K,3
15,Q23Y,2.19
16,Q23W,1.7
17,Q23G,2.01
18,Q23C,2.11
19,Q23D,2.37
20,Q23V,1.68
21,Q23E,1.97
22,Q23R,2.65
23,Q23H,2.34
24,Q23S,2.41
25,H19M,2.35
26,H19D,2.25

row,Variant,protein stability index
1,H19S,2.25
2,H19G,2.64
3,H19A,2.11
4,H19P,2.51
5,H19T,1.97
6,H19C,2.39
7,H19V,2.31
8,H19R,2.05
9,H19N,2.08
10,H19Q,2.51
11,H19Y,1.61
12,H19E,2.19
13,H19L,1.65
14,H19I,2.53
15,H19F,1.48
16,H19W,1.94
17,H19K,2.63
18,Q13L,2.49
19,Q13T,1.79
20,Q13M,1.64
21,Q13K,1.91
22,Q13I,2.35
23,Q13A,1.96
24,Q13P,2.36
25,Q13Y,1.85
26,Q13F,1.83

row,Variant,protein stability index
1,Q13G,2.08
2,Q13D,2.35
3,Q13C,2.13
4,Q13S,2.49
5,Q13N,2.22
6,Q13W,1.72
7,Q13R,1.88
8,Q13H,2.19
9,Q13E,1.74
10,Q13V,1.99
11,D12R,1.44
12,D12E,2.01
13,D12H,2.15
14,D12M,1.7
15,D12Y,1.86
16,D12W,2.99
17,D12I,2.58
18,D12C,2.17
19,D12Q,2.31
20,D12L,1.98
21,D12S,1.67
22,D12K,1.67
23,D12G,2.08
24,D12N,1.93
25,D12F,1.85
26,D12A,1.43

row,Variant,protein stability index
1,D12T,2.12
2,D12V,2.06
3,D12P,1.57
4,E15Q,1.97
5,E15R,1.78
6,E15F,2.76
7,E15T,2.07
8,E15P,1.8
9,E15Y,1.09
10,E15A,1.87
11,E15G,1.9
12,E15N,2.35
13,E15M,1.31
14,E15V,1.83
15,E15L,2.18
16,E15W,1.61
17,E15S,1.76
18,E15K,1.73
19,E15I,1.52
20,E15D,2.1
21,E15C,2.36
22,E15H,1.75
23,R18D,2.36
24,R18M,1.78
25,R18A,1.9
26,R18E,2.2

row,Variant,protein stability index
1,R18H,2.81
2,R18N,2.01
3,R18P,2.26
4,R18F,2.23
5,R18V,2.31
6,R18G,3.52
7,R18Y,2.82
8,R18Q,2.24
9,R18L,2.18
10,R18I,2.15
11,R18W,2.01
12,R18S,2.59
13,R18T,2.45
14,R18K,2.26
15,R18C,2.6
16,R16V,2.35
17,R16P,2.08
18,R16C,2.63
19,R16Q,2.21
20,R16K,1.93
21,R16W,2.07
22,R16S,2
23,R16Y,1.91
24,R16D,2.4
25,R16L,3.1
26,R16F,2.81

row,Variant,protein stability index
1,R16N,2.4
2,R16I,2.2
3,R16H,2.28
4,R16T,2.26
5,R16G,2.48
6,R16A,2.35
7,R16M,1.89
8,R16E,2.43
9,R11H,2.32
10,R11C,2.14
11,R11G,2.82
12,R11I,2.1
13,R11T,2.12
14,R11K,2.46
15,R11N,2.83
16,R11F,1.99
17,R11D,3.59
18,R11M,2.54
19,R11Y,1.64
20,R11E,3.29
21,R11S,2.64
22,R11L,1.98
23,R11A,2.4
24,R11V,2.12
25,R11Q,3.07
26,R11P,3.03

row,Variant,protein stability index
1,D10K,3.05
2,D10S,2.49
3,D10Y,2.26
4,D10M,1.97
5,D10V,2.32
6,D10L,2.29
7,D10R,2.77
8,D10G,2.37
9,D10T,1.85
10,D10H,2.19
11,D10W,2.39
12,D10Q,2.17
13,D10I,2.58
14,D10N,2.33
15,Q17R,1.94
16,Q17T,2
17,Q17N,1.68
18,Q17C,2.07
19,Q17K,2.13
20,Q17P,2.11
21,Q17I,2.34
22,Q17L,2.32
23,Q17W,2.22
24,Q17D,2.21
25,Q17F,2.56
26,Q17E,1.63

row,Variant,protein stability index
1,Q17M,1.73
2,Q17A,2
3,Q17Y,2.72
4,Q17G,1.87
5,Q17S,1.87
6,Q17V,2.31
7,Q17H,1.9
8,E20I,1.57
9,E20G,2.19
10,E20T,2.27
11,E20R,2.13
12,E20F,1.76
13,E20V,2.21
14,E20C,2.01
15,E20K,2.06
16,E20Q,1.53
17,E20P,2.23
18,E20N,2.18
19,E20L,1.64
20,E20W,1.51
21,E20H,2.22
22,E20S,2.3
23,E20Y,2.06
24,E20A,2.51
25,E20D,2.36
26,E20M,1.74

row,Variant,protein stability index
1,S21D,1.78
2,S21L,1.83
3,S21N,1.98
4,S21I,2.41
5,S21T,3.06
6,S21C,2.77
7,S21H,1.99
8,S21W,1.69
9,S21M,1.65
10,S21P,2.39
11,S21R,2.46
12,S21F,1.59
13,S21V,2.16
14,S21A,2.01
15,S21E,2.5
16,S21Q,1.59
17,S21G,2.32
18,S21K,1.46
19,S21Y,1.29
